Data taken from IntAct's records for PubMed 25616961.

B1: Heterogeneous nuclear ribonucleoprotein A1 (Homo sapiens), P09651-2 (parent)
chain: MSKSESPKEPEQLRKLFIGGLSFETTDESLRSHFEQWGTLTDCVVMRDPNTKRSRGFGFVTYATVEEVDAAMNARPHKVDGRVVEPKRAVSREDSQRPGAHLTVKKIFVGGIKEDTEEHHLRDYFEQYGKIEVIEIMTDRGSGKKRGFAFVTFDDHDSVDKIVIQKYHTVNGHNCEVRKALSKQEMASASSSQRGRSGSGNFGGGRGGGFGGNDNFGRGGNFSGRGGFGGSRGGGGYGGSGDGYNGFGNDGSNFGGGGSYNDFGNYNNQSSNFGPMKGGNFGGRSSGPYGGGGQYFAKPRNQGGYGGSSSSSSYGSGRRF

Variants of: B1
Settings: with ubql2_human UBQLN2, Q9UHD9
Sequence of ubql2_human UBQLN2, Q9UHD9 (Q9UHD9 whole entry): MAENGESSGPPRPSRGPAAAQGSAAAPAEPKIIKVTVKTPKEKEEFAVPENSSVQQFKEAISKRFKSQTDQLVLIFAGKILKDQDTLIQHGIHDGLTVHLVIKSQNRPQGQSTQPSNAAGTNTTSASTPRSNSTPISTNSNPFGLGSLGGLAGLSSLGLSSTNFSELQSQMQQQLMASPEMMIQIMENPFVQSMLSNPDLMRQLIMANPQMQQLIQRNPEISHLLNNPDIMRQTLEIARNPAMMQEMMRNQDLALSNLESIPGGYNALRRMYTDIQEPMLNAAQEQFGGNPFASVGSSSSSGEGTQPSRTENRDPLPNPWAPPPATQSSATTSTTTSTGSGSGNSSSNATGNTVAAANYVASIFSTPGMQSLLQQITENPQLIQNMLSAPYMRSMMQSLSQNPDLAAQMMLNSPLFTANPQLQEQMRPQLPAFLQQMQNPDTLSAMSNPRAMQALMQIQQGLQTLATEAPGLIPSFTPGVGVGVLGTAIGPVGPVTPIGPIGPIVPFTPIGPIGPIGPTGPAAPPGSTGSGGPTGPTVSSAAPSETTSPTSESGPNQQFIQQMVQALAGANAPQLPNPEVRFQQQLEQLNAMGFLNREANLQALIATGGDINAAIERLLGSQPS

Q: Which “effect of a mutation on the interaction” value does the source give for D262V here?
A: The value was “decreasing interaction”.
